± gives the standard deviation of the averaged measurements.
B1: library; a variant is named by its letters at N, in order (parent)
chain: GCUGUCACCGGUGCUUGGUACGUUAUAUUCAGCCGGUCUGAUGAGUCUNNNNNNAGACGAAACAGC

What was measured:
(6R,S)-folinic acid [1] = variants of: B1; assay: normalized RNA/DNA level without ligand (relative to sTRSVctl = 100) (log10 (% of sTRSVctl)); HEK293T overexpressing SLC46A1; higher = less ribozyme self-cleavage, higher mRNA level; conditions: without (6R,S)-folinic acid; ligand present: no
Method in brief: (§1)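 For each 6-well well, 4 µg of library plasmid encoding mCherry-linked ribozyme switches, or eGFP-linked ones in some ligand experiments, was transfected into HEK293T. Any ligand was added 1 h before transfection, and RNA was extracted with EDTA 72 h after it, then reverse-transcribed, amplified, barcoded and sequenced. RNA level was obtained by dividing RNA reads by DNA reads, normalizing to a spiked-in non-cleaving sequence or to the top sequences, then scaling and log-transforming. The top set was 25 sequences, scaling was ×100 with log10, and ≥100 DNA reads were required.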

(6R,S)-folinic acid [2] = variants of: B1; assay: normalized RNA/DNA level with ligand (relative to sTRSVctl = 100) (log10 (% of sTRSVctl)); HEK293T overexpressing SLC46A1; ligand concentration (+) RNA-Seq: 6 mM; higher = less ribozyme self-cleavage, higher mRNA level; conditions: with (6R,S)-folinic acid; ligand present: yes
Method in brief: as §1

Variant	normalized RNA/DNA level without ligand (log10) ((6R,S)-folinic acid [1])	normalized RNA/DNA level with ligand (log10) ((6R,S)-folinic acid [2])
GUCAGA	2.0258 ± 0.00039	2.027 ± 0.01
GUCAGU	2.03 ± 0.026	2.04 ± 0.038
GUCAGC	1.979 ± 0.018	2.02 ± 0.033
AUAGGA	1.91 ± 0.022	1.99 ± 0.053
CUCAGC	2.06 ± 0.0071	2.032 ± 0.0023
CUCAGG	1.99 ± 0.021	2.03 ± 0.03
CUCAGA	2.048 ± 0.019	2.03 ± 0.07
CUCAGU	2.024 ± 0.015	2.017 ± 0.015
CUAGGA	2.016 ± 0.0053	2.01 ± 0.047
CUAGGG	1.882 ± 0.017	2.02 ± 0.028
AUCGGC	2.054 ± 0.013	2.02 ± 0.043
AUCGGG	1.923 ± 0.017	2.05 ± 0.047
AUCGGU	1.94 ± 0.02	1.96 ± 0.032
AUCCCC	2.047 ± 0.013	2.01 ± 0.05
AUCCCG	2.01 ± 0.0024	2.01 ± 0.029
AUCCCA	2.022 ± 0.0087	2.03 ± 0.036
AUCCCU	2.039 ± 0.0098	2.027 ± 0.012
AUCGCG	1.926 ± 0.013	2.02 ± 0.019
AUCGCC	2.041 ± 0.014	2 ± 0.053
AUCGCA	2.01 ± 0.024	2 ± 0.032
AUAUAA	1.956 ± 0.0059	1.96 ± 0.032
UUAGUA	1.9501 ± 0.0015	1.98 ± 0.026
UUAGUU	1.972 ± 0.0056	1.97 ± 0.052
UUAGUC	2.031 ± 0.0018	2.024 ± 0.0089

Variant	normalized RNA/DNA level without ligand (log10) ((6R,S)-folinic acid [1])	normalized RNA/DNA level with ligand (log10) ((6R,S)-folinic acid [2])
UUAGUG	1.759 ± 0.012	1.962 ± 0.012
AUAGAA	1.937 ± 0.0051	1.98 ± 0.028
CUCGCC	2.1 ± 0.027	2.07 ± 0.054
CUCGCG	2.038 ± 0.016	2.03 ± 0.038
UUCCAU	1.99 ± 0.023	1.99 ± 0.049
UUCCAG	1.91 ± 0.021	1.99 ± 0.034
UUCCAC	2.01 ± 0.016	1.99 ± 0.033
CUCAUA	1.99 ± 0.021	1.96 ± 0.055
CUCAUU	2.08 ± 0.03	2.05 ± 0.026
CUCAUG	2.003 ± 0.019	1.98 ± 0.023
CUAGUU	2.064 ± 0.0034	2.03 ± 0.041
CUAGUA	1.996 ± 0.015	2 ± 0.034
CUAGUC	2.081 ± 0.0096	2.025 ± 0.015
CUAGUG	2 ± 0.028	2.03 ± 0.014
AUAUUA	1.963 ± 0.012	1.996 ± 0.019
AUAUUU	2.008 ± 0.0083	2.02 ± 0.027
GUCGAA	1.9847 ± 0.0012	2.02 ± 0.026
GUCGAG	1.947 ± 0.0022	2 ± 0.036
AUACUG	1.939 ± 0.0046	2.01 ± 0.03
AUACUA	1.97 ± 0.026	1.99 ± 0.025
AUACUU	2.018 ± 0.013	2.01 ± 0.043
UUCCCG	1.972 ± 0.0089	2 ± 0.038
UUCCCA	2.034 ± 0.0022	2.03 ± 0.04
UUCCCU	2.058 ± 0.011	2.06 ± 0.048

Variant	normalized RNA/DNA level without ligand (log10) ((6R,S)-folinic acid [1])	normalized RNA/DNA level with ligand (log10) ((6R,S)-folinic acid [2])
UUCCCC	2.058 ± 0.019	1.99 ± 0.022
GUCCGC	2.07 ± 0.011	2.045 ± 0.0035
GUCCGU	2.02 ± 0.021	2.022 ± 0.012
CUAUCU	2.042 ± 0.0051	2.06 ± 0.022
CUAUCG	2.037 ± 0.015	2.02 ± 0.043
CUAUCA	2.03 ± 0.035	2.0307 ± 0.00092
CUAUCC	2.07 ± 0.03	2.04 ± 0.037
CUAUGG	1.97 ± 0.03	2.039 ± 0.014
CUAUGC	2.036 ± 0.0043	2.036 ± 0.0099
CUAUGA	2.02 ± 0.013	2.02 ± 0.027
AUCACC	2.057 ± 0.0026	2.04 ± 0.053
AUCACG	1.969 ± 0.014	2.01 ± 0.043
AUCACU	2.029 ± 0.008	2.01 ± 0.03
AUAGCU	2 ± 0.016	2 ± 0.046
CUAGCG	2.0229 ± 0.0015	2.05 ± 0.042
CUAGCU	2.033 ± 0.0023	1.993 ± 0.014
CUAGCC	2.024 ± 0.015	1.98 ± 0.036
CUAGCA	2.038 ± 0.0039	2.041 ± 0.0037
UUAUCG	1.885 ± 0.0047	1.97 ± 0.041
UUAUCA	1.999 ± 0.019	2.01 ± 0.021
UUAUCC	2.04 ± 0.016	2.01 ± 0.032
CUACGG	2.102 ± 0.0025	2.092 ± 0.0045
CUACGU	2 ± 0.01	1.99 ± 0.035
UUAGCG	1.896 ± 0.0052	1.98 ± 0.032

Variant	normalized RNA/DNA level without ligand (log10) ((6R,S)-folinic acid [1])	normalized RNA/DNA level with ligand (log10) ((6R,S)-folinic acid [2])
UUAGCU	2.007 ± 0.0056	2.02 ± 0.047
UUAGCC	2.013 ± 0.0037	1.99 ± 0.026
CUCCGU	2.042 ± 0.018	2.06 ± 0.044
CUCCGA	2.06 ± 0.024	2.01 ± 0.071
CUCGAA	1.994 ± 0.009	1.988 ± 0.018
CUCGAU	1.99 ± 0.0044	1.991 ± 0.0061
CUCGAC	2.017 ± 0.0083	2.01 ± 0.02
UUCCUC	2.096 ± 0.011	2.062 ± 0.02
UUCCUU	2.02 ± 0.017	2.034 ± 0.018
UUCCUA	2.022 ± 0.0051	2.033 ± 0.011
AUCAGG	1.96 ± 0.023	2.04 ± 0.041
AUCAGA	2.047 ± 0.0058	2.04 ± 0.031
AUCAGC	2.065 ± 0.016	2.02 ± 0.031
GUAUGA	1.987 ± 0.0024	2.028 ± 0.017
GUAUGU	1.937 ± 0.015	1.995 ± 0.013
GUAUGG	1.921 ± 0.015	2.02 ± 0.035
AUCCAU	1.991 ± 0.0092	2.01 ± 0.042
AUCCAA	1.958 ± 0.0049	1.98 ± 0.02
AUCCAC	2.037 ± 0.013	2.02 ± 0.037
AUCCAG	1.981 ± 0.0027	2 ± 0.031
GUAUAU	1.944 ± 0.018	1.97 ± 0.043
GUAUAA	1.96 ± 0.014	1.99 ± 0.006
GUAUAC	1.9802 ± 0.0015	2.02 ± 0.026
UUCGCU	1.981 ± 0.014	1.99 ± 0.026

Variant	normalized RNA/DNA level without ligand (log10) ((6R,S)-folinic acid [1])	normalized RNA/DNA level with ligand (log10) ((6R,S)-folinic acid [2])
UUCGCG	1.91 ± 0.029	1.968 ± 0.0034
UUCGCA	1.988 ± 0.016	2 ± 0.048
UUCGCC	2.017 ± 0.0095	2.01 ± 0.025
AUAUGC	1.9727 ± 0.0008	1.99 ± 0.046
GUCGCU	2.048 ± 0.0053	2.002 ± 0.02
GUCGCG	1.96 ± 0.026	1.996 ± 0.0077
CUCCAA	2.03 ± 0.021	2.02 ± 0.025
CUCCAG	2.033 ± 0.011	2.0495 ± 0.00031
CUCCAC	2.0214 ± 0.0016	2.01 ± 0.046
CUCCAU	2.021 ± 0.011	2.03 ± 0.0026
UUCACA	1.966 ± 0.017	1.971 ± 0.015
UUCACC	2.06 ± 0.036	2.02 ± 0.068
UUCACG	1.954 ± 0.013	2.01 ± 0.028
CUCCCA	2.064 ± 0.0049	2.01 ± 0.061
CUCCCG	2.067 ± 0.0068	2.0818 ± 0.00082
CUCCCC	2.02 ± 0.033	2 ± 0.058
CUCCCU	2.04 ± 0.044	2.05 ± 0.062
GUCGGG	1.998 ± 0.011	2.05 ± 0.051
GUCGGC	2.004 ± 0.0028	2.03 ± 0.025
GUCGGA	1.997 ± 0.0032	2.02 ± 0.045
